Here are results for two molecules from PMC7824358, “The Influence of the Mixed DPC:SDS Micelle on the Structure and Oligomerization Process of the Human Cystatin C” (Membranes, 2020).

A word on the stoichiometry N: it is the number of molecules, sites or subunits per partner or assembly.

The target in series [1] is human cystatin C V57P variant (human) (UniProt P01034). The series can be described thus: SEC; analytical gel filtration, Superdex 75 PC 3.2/30, eluted with PBS; protein 30 μM in PBS incubated 24 h at 22 °C with dilution series of DPC:SDS (5:1) mixed micelle, DPC or SDS; dimer retention ca. 13.5 min, monomer ca. 16 min; dimer to monomers. For orientation: In gel filtration, larger molecules generally elute earlier.

Series [2] deals with the molecule itself. The series can be described thus: SEC; hCC WT incubated 24 h in 25 mM sodium acetate buffer pH 4.0, 150 mM NaCl, 1 mM benzamidine hydrochloride; dimer separated from monomer on Superdex 75 10/300 GL; monomer to dimer.

On to “human cystatin C V57P variant (from UniProt P01034 27-146) (natural protein)”, for which, in series [1], the stoichiometry N stood at 2.

B1: human cystatin C (hCC) wild-type (natural protein, UniProt P01034 27-146, looked up)
chain: SSPGKPPRLVGGPMDASVEEEGVRRALDFAVGEYNKASNDMYHSRALQVVRARKQIVAGVNYFLDVELGRTTCTKTQPNLDNCPFHDQPHLKRKAFCSFQIYAVPWQGTMTLSKSTCQDA
notes: human cystatin C, expressed from the pHD313 vector behind the E. coli OmpA signal peptide; Used as a monomer sample and as a dimer sample made by incubation at pH 4.0 and separated by SEC; also called hCC WT; WT
On to B1, for which the “stoichiometry N” value in series [2] worked out at 2.
